Reference: patent US20140366224A1 (CONSEJO SUPERIOR DE INVESTIGACIONES CIENTIFICAS, published 2014)

T1: IYO fused to split YFP (nYFP or cYFP) (Arabidopsis thaliana, UniProt Q8GYU3 1-1465)
T1 construct: BiFC construct expressed in Nicotiana benthamiana leaf epidermal cells; The position of the YFP half varied between combinations, so the order of the parts is not fixed; also called split YFP fused to IYO; not shown: nYFP or cYFP half of split YFP, fused at the N- or C-terminus (different combinations were used)
T1 sequence: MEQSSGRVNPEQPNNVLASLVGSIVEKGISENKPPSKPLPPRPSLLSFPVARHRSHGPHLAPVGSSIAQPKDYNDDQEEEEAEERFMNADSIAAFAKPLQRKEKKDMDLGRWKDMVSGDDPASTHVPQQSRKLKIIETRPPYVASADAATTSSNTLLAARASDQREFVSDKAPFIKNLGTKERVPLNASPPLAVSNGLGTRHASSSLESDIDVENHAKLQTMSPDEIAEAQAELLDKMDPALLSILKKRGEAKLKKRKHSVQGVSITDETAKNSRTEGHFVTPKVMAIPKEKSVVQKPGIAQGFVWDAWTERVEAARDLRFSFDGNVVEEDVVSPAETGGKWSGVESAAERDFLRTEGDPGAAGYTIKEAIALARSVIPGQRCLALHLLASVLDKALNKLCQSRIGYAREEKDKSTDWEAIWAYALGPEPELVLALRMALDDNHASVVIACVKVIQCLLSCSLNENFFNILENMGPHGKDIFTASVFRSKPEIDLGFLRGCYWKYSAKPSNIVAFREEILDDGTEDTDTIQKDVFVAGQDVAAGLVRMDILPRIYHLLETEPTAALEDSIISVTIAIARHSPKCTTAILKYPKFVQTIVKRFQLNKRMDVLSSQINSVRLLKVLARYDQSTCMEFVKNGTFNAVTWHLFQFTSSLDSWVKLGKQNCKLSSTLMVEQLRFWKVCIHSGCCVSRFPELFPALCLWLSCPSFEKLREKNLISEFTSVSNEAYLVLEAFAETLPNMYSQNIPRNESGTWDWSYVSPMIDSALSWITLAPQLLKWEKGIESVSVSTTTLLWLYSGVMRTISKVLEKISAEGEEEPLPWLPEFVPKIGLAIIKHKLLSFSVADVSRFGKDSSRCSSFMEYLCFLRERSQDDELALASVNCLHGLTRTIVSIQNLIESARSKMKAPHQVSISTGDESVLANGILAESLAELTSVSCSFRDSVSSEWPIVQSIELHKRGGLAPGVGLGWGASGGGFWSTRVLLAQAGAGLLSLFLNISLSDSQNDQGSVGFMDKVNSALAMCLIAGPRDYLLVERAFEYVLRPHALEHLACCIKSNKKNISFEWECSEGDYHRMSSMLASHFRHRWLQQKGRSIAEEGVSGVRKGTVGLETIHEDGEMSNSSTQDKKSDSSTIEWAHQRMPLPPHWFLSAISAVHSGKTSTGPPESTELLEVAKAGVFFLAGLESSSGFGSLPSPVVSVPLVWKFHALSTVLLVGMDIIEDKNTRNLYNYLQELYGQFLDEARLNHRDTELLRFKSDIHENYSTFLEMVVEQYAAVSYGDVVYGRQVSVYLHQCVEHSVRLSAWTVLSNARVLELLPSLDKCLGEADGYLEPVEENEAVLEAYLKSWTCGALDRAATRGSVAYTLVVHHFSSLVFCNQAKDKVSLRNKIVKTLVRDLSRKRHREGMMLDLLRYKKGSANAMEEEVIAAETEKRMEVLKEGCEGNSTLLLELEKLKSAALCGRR


Experiments:
[1] = target: T1, IYO fused to split YFP (nYFP or cYFP); assay: BiFC, split YFP in Nicotiana benthamiana leaves
From the text: Although the bulk of AtRTR1 is present in the cytosol, we found high levels of nuclear fluorescence reconstitution when split YFP fused to IYO and AtRTR1 was expressed in Nicotiana benthamiana leaves (FIGS. 12-14). This confirms that IYO and AtRTR1 interact physically, and that they do so in the nucleus. […] To test this, Applicants analyzed the subcellular distribution of AtRTR1 in the presence or absence of co-expressed IYO. These experiments confirmed that co-expressed IYO increases the accumulation of AtRTR1 in the nucleus.
(§1) Applicants tested for the in vivo interaction between IYO and AtRTR1 through a bimolecular fluorescence complementation assay in epidermal cells from Nicotiana benthamiana leaves.

[2] = target: T1, IYO fused to split YFP (nYFP or cYFP); assay: BiFC (split YFP) in Nicotiana benthamiana leaf cells
From the text: as §1

[3] = target: T1, IYO fused to split YFP (nYFP or cYFP); assay: BiFC context, truncated AtRTR1
From the text: as §1

| Binder | binding result [2] | also measured |
| --- | --- | --- |
| AtRTR1 (At5g26760) full-length, fused to split YFP (nYFP or cYFP) (other, Wild-type full-length AtRTR1 in BiFC in Nicotiana benthamiana leaves; The position of the YFP half varied; also called split YFP fused to AtRTR1; not shown: nYFP or cYFP half of split YFP, fused at the N- or C-terminus (different combinations were used)) MAKDNEAIAINDAVHKLQLYMLENTTDQNQLFAARKLMSRSDYEDVVTERAIAKLCGYTLCQRFLPSDVSRRGKYRISLKDHKVYDLQETSKFCSAGCLIDSKTFSGSLQEARTLEFDSVKLNEILDLFGDSLEVKGSLDVNKDLDLSKLMIKENFGVRGEELSLEKWMGPSNAVEGYVPFDRSKSSNDSKATTQSNQEKHEMDFTSTVIMPDVNSVSKLPPQTKQASTVVESVDGKGKTVLKEQTVVPPTKKVSRFRREKEKEKKTFGVDGMGCAQEKTTVLPRKILSFCNEIEKDFKNFGFDEMGLASSAMMSDGYGVEYSVSKQPQCSMEDSLSCKLKGDLQTLDGKNTLSGSSSGSNTKGSKTKPEKSRKKIISVEYHANSYEDGEEILAAESYERHKAQDVCSSSEIVTKSCLKISGSKKLSRSVTWADQNDGRGDLCEVRNNDNAAGPSLSSNDIEDVNSLSRLALAEALATALSQAAEAVSSGNSDASDATAKAGIILLPSTHQLDEEVTEEHSEEEMTEEEPTLLKWPNKPGIPDSDLFDRDQSWFDGPPEGFNLTLSNFAVMWDSLFGWVSSSSLAYIYGKEESAHEEFLLVNGKEYPRRIIMVDGLSSEIKQTIAGCLARALPRVVTHLRLPIAISELEKGLGSLLETMSLTGAVPSFRVKEWLVIVLLFLDALSVSRIPRIAPYISNRDKILEGSGIGNEEYETMKDILLPLGRVPQFATRSGA | – | binding result [1]: binds |
| full-length AtRTR1 C56A/C61A (other, not shown: large carriers, The putative zinc-coordinating cysteines are substituted by alanine) MAKDNEAIAINDAVHKLQLYMLENTTDQNQLFAARKLMSRSDYEDVVTERAIAKLAGYTLAQRFLPSDVSRRGKYRISLKDHKVYDLQETSKFCSAGCLIDSKTFSGSLQEARTLEFDSVKLNEILDLFGDSLEVKGSLDVNKDLDLSKLMIKENFGVRGEELSLEKWMGPSNAVEGYVPFDRSKSSNDSKATTQSNQEKHEMDFTSTVIMPDVNSVSKLPPQTKQASTVVESVDGKGKTVLKEQTVVPPTKKVSRFRREKEKEKKTFGVDGMGCAQEKTTVLPRKILSFCNEIEKDFKNFGFDEMGLASSAMMSDGYGVEYSVSKQPQCSMEDSLSCKLKGDLQTLDGKNTLSGSSSGSNTKGSKTKPEKSRKKIISVEYHANSYEDGEEILAAESYERHKAQDVCSSSEIVTKSCLKISGSKKLSRSVTWADQNDGRGDLCEVRNNDNAAGPSLSSNDIEDVNSLSRLALAEALATALSQAAEAVSSGNSDASDATAKAGIILLPSTHQLDEEVTEEHSEEEMTEEEPTLLKWPNKPGIPDSDLFDRDQSWFDGPPEGFNLTLSNFAVMWDSLFGWVSSSSLAYIYGKEESAHEEFLLVNGKEYPRRIIMVDGLSSEIKQTIAGCLARALPRVVTHLRLPIAISELEKGLGSLLETMSLTGAVPSFRVKEWLVIVLLFLDALSVSRIPRIAPYISNRDKILEGSGIGNEEYETMKDILLPLGRVPQFATRSGA | no binding | – |
| full-length AtRTR1 C94A/C98A (other, not shown: large carriers, The putative zinc-coordinating cysteines are substituted by alanine) MAKDNEAIAINDAVHKLQLYMLENTTDQNQLFAARKLMSRSDYEDVVTERAIAKLCGYTLCQRFLPSDVSRRGKYRISLKDHKVYDLQETSKFASAGALIDSKTFSGSLQEARTLEFDSVKLNEILDLFGDSLEVKGSLDVNKDLDLSKLMIKENFGVRGEELSLEKWMGPSNAVEGYVPFDRSKSSNDSKATTQSNQEKHEMDFTSTVIMPDVNSVSKLPPQTKQASTVVESVDGKGKTVLKEQTVVPPTKKVSRFRREKEKEKKTFGVDGMGCAQEKTTVLPRKILSFCNEIEKDFKNFGFDEMGLASSAMMSDGYGVEYSVSKQPQCSMEDSLSCKLKGDLQTLDGKNTLSGSSSGSNTKGSKTKPEKSRKKIISVEYHANSYEDGEEILAAESYERHKAQDVCSSSEIVTKSCLKISGSKKLSRSVTWADQNDGRGDLCEVRNNDNAAGPSLSSNDIEDVNSLSRLALAEALATALSQAAEAVSSGNSDASDATAKAGIILLPSTHQLDEEVTEEHSEEEMTEEEPTLLKWPNKPGIPDSDLFDRDQSWFDGPPEGFNLTLSNFAVMWDSLFGWVSSSSLAYIYGKEESAHEEFLLVNGKEYPRRIIMVDGLSSEIKQTIAGCLARALPRVVTHLRLPIAISELEKGLGSLLETMSLTGAVPSFRVKEWLVIVLLFLDALSVSRIPRIAPYISNRDKILEGSGIGNEEYETMKDILLPLGRVPQFATRSGA | no binding | – |
| C-terminal half of AtRTR1 (aa 305-735) (other, not shown: large carriers, also called truncated C-terminal half of AtRTR1; C-terminal half of RTR1) EMGLASSAMMSDGYGVEYSVSKQPQCSMEDSLSCKLKGDLQTLDGKNTLSGSSSGSNTKGSKTKPEKSRKKIISVEYHANSYEDGEEILAAESYERHKAQDVCSSSEIVTKSCLKISGSKKLSRSVTWADQNDGRGDLCEVRNNDNAAGPSLSSNDIEDVNSLSRLALAEALATALSQAAEAVSSGNSDASDATAKAGIILLPSTHQLDEEVTEEHSEEEMTEEEPTLLKWPNKPGIPDSDLFDRDQSWFDGPPEGFNLTLSNFAVMWDSLFGWVSSSSLAYIYGKEESAHEEFLLVNGKEYPRRIIMVDGLSSEIKQTIAGCLARALPRVVTHLRLPIAISELEKGLGSLLETMSLTGAVPSFRVKEWLVIVLLFLDALSVSRIPRIAPYISNRDKILEGSGIGNEEYETMKDILLPLGRVPQFATRSGA | – | binding result [3]: binds |
